According to patent publication US20200262867A1 (WNTRX PHARMACEUTICALS, published 2020):
Bridges are numbered along the chain shown (N, C = ends). Primed or numbered codes have the meaning given here. Where no end group is shown, it is not given here. [ ]: non-standard residue; d: D form. The star is where a group is joined. S5′ = (S)-2-(4'-pentenyl)alanine, olefinic stapling residue closed by ring-closing metathesis; NMeQ′ = N-methylglutamine (N-alpha-methyl, stereo named both D and L in the filing); Phe(3,4-Cl2) = N[C@@H](Cc1ccc(Cl)c(Cl)c1)C(=O)O; PEG4″ = PEG4 (tetraethylene glycol) spacer; Phe(4-Cl) = N[C@@H](Cc1ccc(Cl)cc1)C(=O)O; Phe(4-F) = N[C@@H](Cc1ccc(F)cc1)C(=O)O; 2Nal = N[C@@H](Cc1ccc2ccccc2c1)C(=O)O; Palmitoyl = CCCCCCCCCCCCCCCC(=O)*; hArg = N=C(N)NCCCC[C@H](N)C(=O)O; NMeQ = CN[C@@H](CCC(N)=O)C(=O)O; dNMeQ = CN[C@H](CCC(N)=O)C(=O)O; Cha = N[C@@H](CC1CCCCC1)C(=O)O; Cba = N[C@@H](CC1CCC1)C(=O)O; S5 = C=CCCC[C@](C)(N)C(=O)O; NMeC = CN[C@@H](CS)C(=O)O

T1: β-catenin (UniProt P35222 1-781, limits assumed)
T1 construct: also called beta-catenin
T1 sequence (looked up): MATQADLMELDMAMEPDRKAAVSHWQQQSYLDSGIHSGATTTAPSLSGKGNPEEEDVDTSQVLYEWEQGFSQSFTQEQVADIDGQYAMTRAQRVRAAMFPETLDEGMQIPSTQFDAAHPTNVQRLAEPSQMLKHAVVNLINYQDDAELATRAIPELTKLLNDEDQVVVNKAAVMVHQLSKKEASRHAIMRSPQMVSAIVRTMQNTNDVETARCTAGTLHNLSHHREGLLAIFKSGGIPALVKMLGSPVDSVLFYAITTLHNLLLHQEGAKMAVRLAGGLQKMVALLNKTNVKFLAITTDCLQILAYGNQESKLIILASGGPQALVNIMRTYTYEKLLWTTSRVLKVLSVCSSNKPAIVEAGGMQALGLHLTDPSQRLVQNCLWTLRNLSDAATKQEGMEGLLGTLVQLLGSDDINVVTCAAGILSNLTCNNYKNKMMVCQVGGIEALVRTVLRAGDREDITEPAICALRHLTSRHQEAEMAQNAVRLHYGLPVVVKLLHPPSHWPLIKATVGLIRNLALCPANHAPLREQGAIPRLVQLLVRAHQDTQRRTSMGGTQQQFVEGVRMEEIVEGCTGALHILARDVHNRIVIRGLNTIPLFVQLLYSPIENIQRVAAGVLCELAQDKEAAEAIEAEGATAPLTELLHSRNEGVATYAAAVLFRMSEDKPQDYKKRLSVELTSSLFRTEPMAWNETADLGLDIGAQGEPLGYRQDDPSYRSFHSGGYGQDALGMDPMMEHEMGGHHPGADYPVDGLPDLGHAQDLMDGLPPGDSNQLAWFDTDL

B1: SEQ ID NO: 196 (peptide)
peptide: Ac-HRQRSLQTLR[S5]IQR[S5][Phe(4-Cl)][2Nal]-NH2
modifications: staple 11-15
SMILES: CC[C@H](C)[C@@H]1NC(=O)[C@@](C)(NC(=O)[C@H](CCCNC(=N)N)NC(=O)[C@H](CC(C)C)NC(=O)[C@@H](NC(=O)[C@H](CCC(N)=O)NC(=O)[C@H](CC(C)C)NC(=O)[C@H](CO)NC(=O)[C@H](CCCNC(=N)N)NC(=O)[C@H](CCC(N)=O)NC(=O)[C@H](CCCNC(=N)N)NC(=O)[C@H](Cc2c[nH]cn2)NC(C)=O)[C@@H](C)O)CCCC=CCCC[C@@](C)(C(=O)N[C@@H](Cc2ccc(Cl)cc2)C(=O)N[C@@H](Cc2ccc3ccccc3c2)C(N)=O)NC(=O)[C@H](CCCNC(=N)N)NC(=O)[C@H](CCC(N)=O)NC1=O
B2: SEQ ID NO: 211 (peptide)
peptide: {Palmitoyl-PEG4″}-HRQRS[Cha][NMeQ′]TLR[S5]IQR[S5][Cha][2Nal]-NH2
modifications: staple 11-15; not fully specified; printed as HRQRS(Cha)(N-methylQ)TLRXaa3IQRXaa6(Cha)(2-Nal)
B3: SEQ ID NO: 200 (peptide)
peptide: Ac-HRQRS[Cha][NMeQ′]TLR[S5]IQR[S5][Phe(4-F)][2Nal]-NH2
modifications: staple 11-15; not fully specified; printed as HRQRS(Cha)(N-methylQ)TLRXaa3IQRXaa6(4-F-Ph)(2-Nal)
B4: SEQ ID NO: 202 (peptide)
peptide: Ac-HR[NMeQ′]RSL[NMeQ′]TLR[S5]IQR[S5][Phe(4-F)][2Nal]-NH2
modifications: staple 11-15; not fully specified; printed as HR(N-methylQ)RSL(N-methylQ)TLRXIQRX(4-F-Ph)(2-Nal), X/X stapled, (S) α-methyl, N-terminal Ac, C-terminal NH2
B5: SEQ ID NO: 203 (peptide)
peptide: Ac-HR[NMeQ′]RSL[NMeQ′]TLR[S5]IQR[S5][Phe(3,4-Cl2)][2Nal]-NH2
modifications: staple 11-15; not fully specified; printed as HR(N-methylQ)RSL(N-methylQ)TLRXIQRX(3,4-diCl-Ph)(2-Nal), X/X stapled, (S) α-methyl, N-terminal Ac, C-terminal NH2
B6: SEQ ID NO: 216 (peptide)
peptide: Ac-CRQRSLQTLR[S5]IQR[S5][Cha][2Nal]-NH2
modifications: staple 11-15
SMILES: CC[C@H](C)[C@@H]1NC(=O)[C@@](C)(NC(=O)[C@H](CCCNC(=N)N)NC(=O)[C@H](CC(C)C)NC(=O)[C@@H](NC(=O)[C@H](CCC(N)=O)NC(=O)[C@H](CC(C)C)NC(=O)[C@H](CO)NC(=O)[C@H](CCCNC(=N)N)NC(=O)[C@H](CCC(N)=O)NC(=O)[C@H](CCCNC(=N)N)NC(=O)[C@H](CS)NC(C)=O)[C@@H](C)O)CCCC=CCCC[C@@](C)(C(=O)N[C@@H](CC2CCCCC2)C(=O)N[C@@H](Cc2ccc3ccccc3c2)C(N)=O)NC(=O)[C@H](CCCNC(=N)N)NC(=O)[C@H](CCC(N)=O)NC1=O
B7: SEQ ID NO: 217 (peptide)
peptide: Ac-[NMeC]RQRSLQTLR[S5]IQR[S5][Cha][2Nal]-NH2
modifications: staple 11-15
SMILES: CC[C@H](C)[C@@H]1NC(=O)[C@@](C)(NC(=O)[C@H](CCCNC(=N)N)NC(=O)[C@H](CC(C)C)NC(=O)[C@@H](NC(=O)[C@H](CCC(N)=O)NC(=O)[C@H](CC(C)C)NC(=O)[C@H](CO)NC(=O)[C@H](CCCNC(=N)N)NC(=O)[C@H](CCC(N)=O)NC(=O)[C@H](CCCNC(=N)N)NC(=O)[C@H](CS)N(C)C(C)=O)[C@@H](C)O)CCCC=CCCC[C@@](C)(C(=O)N[C@@H](CC2CCCCC2)C(=O)N[C@@H](Cc2ccc3ccccc3c2)C(N)=O)NC(=O)[C@H](CCCNC(=N)N)NC(=O)[C@H](CCC(N)=O)NC1=O
B8: SEQ ID NO: 21 (peptide)
peptide: Ac-AQTAR[S5]IQR[S5]L[2Nal]-NH2
modifications: staple 6-10
SMILES: CC[C@H](C)[C@@H]1NC(=O)[C@@](C)(NC(=O)[C@H](CCCNC(=N)N)NC(=O)[C@H](C)NC(=O)[C@@H](NC(=O)[C@H](CCC(N)=O)NC(=O)[C@H](C)NC(C)=O)[C@@H](C)O)CCCC=CCCC[C@@](C)(C(=O)N[C@@H](CC(C)C)C(=O)N[C@@H](Cc2ccc3ccccc3c2)C(N)=O)NC(=O)[C@H](CCCNC(=N)N)NC(=O)[C@H](CCC(N)=O)NC1=O
B9: SEQ ID NO: 114 (peptide)
peptide: [Cba][dNMeQ]TLR[S5]IQR[S5][Cba][2Nal]
modifications: staple 6-10; not fully specified (N-terminus, C-terminus); printed as (CBA)(N-methylQ)TLRXIQRX(CBA)(2-Nal), X/X stapled, (S) α-methyl, N-terminal Ac, C-terminal NH2
B10: SEQ ID NO: 141 (peptide)
peptide: {4‑(trifluoromethyl)benzoic acid}-L[NMeQ]TLR[S5]IQR[S5][Cba][2Nal]-NH2
modifications: staple 6-10; not fully specified
notes: the footnote mark in T0158 is printed 19, seemingly for 10

biological target: T1, β-catenin; assay: ALPHA Screen (BCL9/β-catenin);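 further: bead proximity readout with the polypeptide linked to donor beads and β-catenin fixed on acceptor beads, their binding bringing the beads close enough to emit signal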
Description: In this assay, a polypeptide is conjugated to a donor bead and its target protein (i.e., β-catenin) is attached to an acceptor bead. When the two beads are in proximity due to the binding of the polypeptide to the target protein, a signal is generated and the binding affinity of the polypeptide can be quantitatively calculated. The assay may be conducted in the presence or absence of an unconjugated control polypeptide.

Q: LQTLRDIQRML[2Nal]PD [SEQ ID NO: 53] was tested. Which IC50 did it give?
A: 27.9 µM

Q: B1 was tested. Which IC50 did it give?
A: 0.063 µM

Q: With B2 as the binder, how does the IC50 read?
A: 0.305 µM

Q: Which IC50 does the source give for B3 here?
A: 0.324 µM

Q: Which IC50 does the source give for B4 here?
A: 0.294 µM

Q: With B5 as the binder, how does the IC50 read?
A: 0.312 µM

Q: With B6 as the binder, how does the IC50 read?
A: 0.155 µM

Q: With B7 as the binder, how does the IC50 read?
A: 0.384 µM

Q: Ac-LQTLR[S5]IQR[S5]A[2Nal]-NH2 (staple 6-10) [SEQ ID NO: 77] was tested. Which IC50 did it give?
A: 7.68 µM

Q: Ac-LQTAR[S5]AQR[S5]L[2Nal]-NH2 (staple 6-10; not fully specified; printed as LQTARXAQRXL(2-Nal)) [SEQ ID NO: 22] was tested. Which IC50 did it give?
A: 11.4 µM

Q: How did the IC50 turn out when Ac-[dL]QTIR[S5]IQR[S5]L[2Nal]-NH2 (staple 6-10) [SEQ ID NO: 102] was run?
A: 6.84 µM

Q: With Ac-LQTLR[S5]IQK[S5]L[2Nal]-NH2 (staple 6-10) [SEQ ID NO: 101] as the binder, how does the IC50 read?
A: 10.6 µM

Q: How did the IC50 turn out when Ac-LQTLR[S5]AQR[S5]L[2Nal]-NH2 (staple 6-10) [SEQ ID NO: 76] was run?
A: 8.99 µM

Q: How did the IC50 turn out when Ac-LETLR[S5]IQR[S5][Cba][2Nal]-NH2 (staple 6-10) [SEQ ID NO: 109] was run?
A: 0.913 µM

Q: B8 was tested. Which IC50 did it give?
A: 7.61 µM

Q: For Ac-LQTLK[S5]IQR[S5]L[2Nal]-NH2 (staple 6-10) [SEQ ID NO: 100], which IC50 is on record?
A: 14.4 µM

Q: With Ac-LQT[dL]R[S5]IQR[S5]L[2Nal]-NH2 (staple 6-10) [SEQ ID NO: 103] as the binder, how does the IC50 read?
A: 2.86 µM

Q: Which IC50 does the source give for Ac-LQTLR[S5]AQR[S5]A[2Nal]-NH2 (staple 6-10; not fully specified; printed as LQTLRXAQRXA(2-Nal)) [SEQ ID NO: 23] here?
A: 30 µM

Q: For Ac-LQTLE[S5′]IQR[S5′]L[2Nal]-NH2 (staple 6-10) [SEQ ID NO: 98], which IC50 is on record?
A: 47.1 µM

Q: For Ac-LQTLR[S5]IQH[S5][Cba][2Nal]-NH2 (staple 6-10) [SEQ ID NO: 112], which IC50 is on record?
A: 5.65 µM

Q: Which IC50 does the source give for B9 here?
A: 4.9 µM

Q: For Ac-LQTLR[S5′]IQE[S5′]L[2Nal]-NH2 (staple 6-10) [SEQ ID NO: 99], which IC50 is on record?
A: 50 µM

Q: With Ac-LQT[Cba]R[S5]IQR[S5][Cba][2Nal]-NH2 (staple 6-10) [SEQ ID NO: 115] as the binder, how does the IC50 read?
A: 4.53 µM

Q: How did the IC50 turn out when Ac-LQTLR[S5]IQR[S5][dL][2Nal]-NH2 (staple 6-10) [SEQ ID NO: 105] was run?
A: 10.7 µM

Q: Which IC50 does the source give for Ac-LQTAR[S5]IQR[S5]L[2Nal]-NH2 (staple 6-10) [SEQ ID NO: 75] here?
A: 6.29 µM

Q: For Ac-[Cba]QTLR[S5]IQR[S5][Cba][2Nal]-NH2 (staple 6-10) [SEQ ID NO: 113], which IC50 is on record?
A: 6.99 µM

Q: Which IC50 does the source give for {5‑phenylvaleric acid}-L[NMeQ]TLR[S5]IQR[S5][Cba][2Nal]-NH2 (staple 6-10; not fully specified) [SEQ ID NO: 142] here?
A: 6.07 µM

Q: Ac-HRQRSLQTL[hArg][S5]IQR[S5][Cba][2Nal]-NH2 (staple 11-15) [SEQ ID NO: 170] was tested. Which IC50 did it give?
A: 0.43 µM

Q: For B10, which IC50 is on record?
A: 2.25 µM

Q: For Ac-HRQRSLQTLR[S5]IQ[hArg][S5][Cba][2Nal]-NH2 (staple 11-15) [SEQ ID NO: 171], which IC50 is on record?
A: 0.34 µM
